Tests used:
Ile83Glu anti-HER2 memAb = assay: SPR; memAb variant amine-coupled to a CM5 chip, peptide flowed over at 30 uL/min, HBS-EP+, 37 °C, Biacore T100, 1:1 binding model
[1] = target: memAb anti-HER2 (meditope-enabled, trastuzumab-based anti-HER2 antibody); assay: SPR; memAb anti-HER2 amine-coupled on a CM5 chip, meditope flowed over at 30 uL/min, HBS-EP+, 25 °C, 1:1 model, global fit, n=1 (authors estimate the error at 10-50%)
long meditope ((Ac)…) = assay: SPR; conditions: 37 °C (red point beside label LE); n = 1; parent: est. 5.3; read off a plot
[2] = target: anti-HER2 memAb (trastuzumab-based, meditope-enabled anti-HER2 antibody); assay: SPR; memAb variant amine-coupled to a CM5 chip, peptide flowed over at 30 uL/min, HBS-EP+, 25 °C, Biacore T100, 1:1 binding model
Sequence of anti-HER2 memAb (trastuzumab-based, meditope-enabled anti-HER2 antibody) (heavy, as listed by the source, chain 1 of 2): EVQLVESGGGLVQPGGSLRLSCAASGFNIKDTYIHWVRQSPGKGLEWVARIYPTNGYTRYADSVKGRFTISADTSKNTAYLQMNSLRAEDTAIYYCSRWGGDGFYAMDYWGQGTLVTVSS
Sequence of anti-HER2 memAb (trastuzumab-based, meditope-enabled anti-HER2 antibody) (light, as listed by the source, chain 2 of 2): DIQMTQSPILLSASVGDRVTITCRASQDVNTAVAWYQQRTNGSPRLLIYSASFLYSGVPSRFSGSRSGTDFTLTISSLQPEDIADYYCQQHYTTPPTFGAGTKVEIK

Sequence of memAb anti-HER2 (meditope-enabled, trastuzumab-based anti-HER2 antibody) (heavy, as listed by the source, chain 1 of 2): as the sequence (heavy, as listed by the source, chain 1 of 2) above
Sequence of Ile83Glu anti-HER2 memAb (heavy, as listed by the source, chain 1 of 2): as above
Sequence of Ile83Glu anti-HER2 memAb (light, as listed by the source, chain 2 of 2): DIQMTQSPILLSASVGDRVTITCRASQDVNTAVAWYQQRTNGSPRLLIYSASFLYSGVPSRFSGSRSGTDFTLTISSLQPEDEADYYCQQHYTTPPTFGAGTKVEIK

5-diphenylalanine-8-Arg-(PEG)2-azido-meditope ((Ac)CQFDA(Ph)2STRXLRCGGSK, X = arginine-(PEG)2-azide) (peptide)
Kd (Ile83Glu anti-HER2 memAb): 2.1 nM | half-life (Ile83Glu anti-HER2 memAb): 1.38 h

CQFDA(Ph)2STRRLKC meditope (peptide)
koff [1]: 0.008 s⁻¹ | kon [1]: 200000 M⁻¹ s⁻¹

anti-HER2 memAb (trastuzumab-based, meditope-enabled anti-HER2 antibody) LC:Ile83Glu
kon (log10(M-1 s-1)) (long meditope ((Ac)…)): 5.6

meditope with Leu5 substituted by L-diphenylalanine (peptide)
Kd [2]: 40 nM

Reference: PMC5910394, “Mechanically interlocked functionalization of monoclonal antibodies” (Nature Communications, 2018)
